Reference: patent publication US20120088722A1 (PROTEAPEX THERAPEUTICS, published 2012)
Ends that are not written are not given here.

How the values were obtained:
[1] = biological target: T1, recombinant protein of the calcium-binding, EGF-like domains of LTBP1 (CE-LTBP1); experiment: fluorescent peptide (100 nM) binding to plate-dried recombinant CE-LTBP1, reference scrambled peptide
T1 construct: It was dried onto poly-L-lysine coated wells
Experimental: (§1) Peptide binding assay—Twenty-five micrograms of total equal protein from cartilage CHAPS extracts or five nanograms recombinant protein of the calcium-like EGF binding domain of LTBP1 (a kind gift of Sarah Dallas) or hypertrophic cartilage from day 17 avian embryo sterna and tibial growth plate cartilage from day 14 newborn rat pups were extracted with 0.5% CHAPS buffer and eluates immunoprecipitated with polyclonal antibody to LTBP1 and then samples were plated onto poly-L-lysine coated 96 well plates. After overnight drying, the protein-coated wells were incubated with 100 nM fluorescent-labeled peptide in Tris buffered saline [150 mM NaCl, 10 mM Tris, pH 8.0] and 20% horse serum for 4 hours at 16° C. After incubation, the wells are washed twice with binding buffer, the protein layer solubilized with 5N NaOH and fluorescence bound measured at 495 nm excitation and 520 nm emission on the LabSystems Fluoroskan Ascent CF plate reader. Statistical analyses and graphing were performed with Prism GraphPad software (ANOVA with Turkey's Analysis). A scrambled peptide of the same amino acid composition was prepared as a negative control. Competition assays were conducted in the presence of 10-fold more (1 μM) naked peptide.

[2] = biological target: T2, LTBP1 immunoprecipitated from avian hypertrophic cartilage (avian (chick embryo)); experiment: fluorescent peptide (100 nM) binding to plate-dried LTBP1 immunoprecipitate of avian hypertrophic cartilage, reference scrambled peptide
T2 construct: An immunoprecipitate: proteins associated with LTBP1 (TGFβ LLC components) may be present; also called hypertrophic cartilage immunoprecipitates
Experimental: as §1

[3] = biological target: T3, LTBP1 immunoprecipitated from rat tibial growth plate cartilage (rat, UniProt Q00918 21-1712, limits assumed); experiment: fluorescent peptide (100 nM) binding to plate-dried LTBP1 immunoprecipitate of rat tibial growth plate cartilage, reference scrambled peptide
T3 construct: An immunoprecipitate: proteins associated with LTBP1 may be present; also called rat tibial growth plate cartilage immunoprecipitated extracts
T3 sequence (Q00918 21-1712 limits assumed): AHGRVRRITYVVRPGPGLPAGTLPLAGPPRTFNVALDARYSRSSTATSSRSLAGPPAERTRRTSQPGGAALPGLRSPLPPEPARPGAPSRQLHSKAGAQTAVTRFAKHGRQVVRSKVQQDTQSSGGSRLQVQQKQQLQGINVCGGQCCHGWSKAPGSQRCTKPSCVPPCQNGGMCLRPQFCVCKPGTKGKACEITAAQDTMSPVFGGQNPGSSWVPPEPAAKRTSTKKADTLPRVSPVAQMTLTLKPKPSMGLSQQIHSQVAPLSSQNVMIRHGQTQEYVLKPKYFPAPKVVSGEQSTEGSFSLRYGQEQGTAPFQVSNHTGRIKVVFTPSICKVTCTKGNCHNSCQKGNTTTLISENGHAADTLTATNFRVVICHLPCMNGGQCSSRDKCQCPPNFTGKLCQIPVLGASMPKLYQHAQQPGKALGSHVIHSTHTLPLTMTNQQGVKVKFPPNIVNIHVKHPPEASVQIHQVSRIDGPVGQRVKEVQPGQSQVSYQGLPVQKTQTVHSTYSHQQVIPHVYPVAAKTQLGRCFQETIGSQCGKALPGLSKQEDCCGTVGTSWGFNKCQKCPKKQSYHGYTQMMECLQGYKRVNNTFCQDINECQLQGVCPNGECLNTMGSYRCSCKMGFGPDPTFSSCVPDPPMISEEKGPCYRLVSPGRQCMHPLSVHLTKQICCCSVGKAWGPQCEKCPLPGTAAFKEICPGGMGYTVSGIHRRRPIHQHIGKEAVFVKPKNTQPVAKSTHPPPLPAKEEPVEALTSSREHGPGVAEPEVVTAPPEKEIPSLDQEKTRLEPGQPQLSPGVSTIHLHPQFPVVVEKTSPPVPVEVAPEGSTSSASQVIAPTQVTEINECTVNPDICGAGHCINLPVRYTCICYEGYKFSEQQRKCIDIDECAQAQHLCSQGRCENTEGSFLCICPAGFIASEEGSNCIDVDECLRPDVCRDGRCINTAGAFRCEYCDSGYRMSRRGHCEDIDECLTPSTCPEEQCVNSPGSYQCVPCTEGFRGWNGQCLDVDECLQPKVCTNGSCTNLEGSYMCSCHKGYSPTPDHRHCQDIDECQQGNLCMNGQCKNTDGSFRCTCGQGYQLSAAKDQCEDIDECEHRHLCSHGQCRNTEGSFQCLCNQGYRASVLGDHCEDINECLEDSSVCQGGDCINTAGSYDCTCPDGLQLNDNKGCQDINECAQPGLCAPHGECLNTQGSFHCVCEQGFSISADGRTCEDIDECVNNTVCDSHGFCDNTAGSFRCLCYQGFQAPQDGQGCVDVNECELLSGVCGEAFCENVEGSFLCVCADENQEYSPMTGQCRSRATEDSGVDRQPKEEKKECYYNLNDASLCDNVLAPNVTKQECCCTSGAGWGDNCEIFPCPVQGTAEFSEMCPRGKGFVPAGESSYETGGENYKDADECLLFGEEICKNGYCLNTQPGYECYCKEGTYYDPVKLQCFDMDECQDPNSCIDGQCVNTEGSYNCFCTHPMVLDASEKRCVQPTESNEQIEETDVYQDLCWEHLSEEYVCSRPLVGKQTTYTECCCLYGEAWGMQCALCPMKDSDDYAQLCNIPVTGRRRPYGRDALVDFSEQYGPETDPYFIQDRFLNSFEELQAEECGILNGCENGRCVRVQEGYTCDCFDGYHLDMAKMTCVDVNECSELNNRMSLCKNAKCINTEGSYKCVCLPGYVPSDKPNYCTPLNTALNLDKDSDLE
Experimental: as §1

ELGLPKEVKKISAAVHFED (also: fluorescent-labeled in binding assay, label and position not given here, also called MPP13-19; pxpt 001-1) [MMP13-19 peptide (amino acids 93-111 of SEQ ID NO: 1)]
fold binding over scrambled peptide [1]: 27 fold
fold binding over scrambled control [2]: 10.5 fold
fold binding over scrambled control [3]: 3.9 fold
